In patent publication US9534059B2, “TIKI inhibitors” (Children's Medical Center Corporation, priority 2012, dated 2017):

How the values were obtained:
[1] = tested on: Tiki1 and Dkk1 expression; experiment: RT-PCR of Tiki1 and Dkk1 expression in treated whole embryos (FIG. 2M); type: in vivo, Xenopus
Experimental: (M) Tiki1 expression is regulated by maternal Wnt signaling. Whole embryos were used for LiCl or UV treatment. 20 or 40 pg of Xwnt8 mRNA was injected into the ventral marginal zone (VMZ) at 4 to 8-cell stage and the VMZ was dissected at stage 10.5 for RT-PCR. ΔNTCF mRNA (1 or 2 ng) was injected into the dorsal marginal zone (DMZ) at 4 to 8-cell stage and the DMZ was dissected at stage 10.5 for RT-PCR. Con: control.
Organizer formation requires maternal Wnt/β-catenin signaling (De Robertis and Kuroda, 2004; Harland and Gerhart, 1997), which is necessary and sufficient for Tiki1 (and Dkk1) expression. Ectopic Xwnt8 induced Tiki1 and Dkk1 expression ventrally, whereas a dominant negative TCF (T cell factor, a DNA-binding transcription factor that mediates beta-catenin signaling), ΔNTCF (Molenaar et al., 1996), suppressed the endogenous Tiki1 and Dkk1 dorsal expression (FIG. 2M). Furthermore LiCl, which stabilizes β-catenin thus dorsalizes embryos, induced Tiki1 and Dkk1 expression, while ultraviolet irradiation, which through microtubule disruption causes defective maternal Wnt signaling thus ventralizes embryos (Harland and Gerhart, 1997), suppressed Tiki1 and Dkk1 expression (FIG. 2M).

Wnt3a = experiment: TOPFLASH assay of TIKI2N mutants co-transfected with Wnt3a in HEK293T cells; type: cell-based, human; conditions: 5, 2.5, 1.25 and 0.612 ng plasmid with Wnt3a 20 ng
Experimental: FIG. 8B. Bar graph showing the results of a TOPFLASH assay testing TIKI2 mutations in Human TIKI2N construct (no transmembrane domain). Decreasing doses of 5, 2.5, 1.25 and 0.612 ng of the indicated TIKI2N expression plasmid were cotransfected with Wnt3a (20 ng) in HEK293T cells.
HEK293T, HeLa, L and L-Wnt3a cells (from ATCC) were maintained in Dulbecco's modified Eagle's medium (DMEM; Invitrogen) supplemented with 10% fetal bovine serum (FBS) and 1% penicillin-streptomycin-glutamine (Invitrogen). Lipofectamine 2000 (Invitrogen) or Fugene6 (Roche) was used for all cell transfections. L and L-Wnt3a cells that stably express TIKI2 were generated by infecting cells with retroviruses and selected by puromycin. L cells stably expressing Wnt3a(FLAG) were established by transfecting L cells with a Wnt3a(FLAG) expressing vector and selected with neomycine. L cells stably expressing both Wnt3a(FLAG) and TIKI2 were also generated. TOPFLASH reporter assay was performed as previously described (MacDonald et al., 2008).
A Wnt-responsive reporter (TOP-FLASH) assay was performed to test mutations at T56A, H58A, E85A, E205A, H256A, R303A, H331A in a Human TIKI2N construct (no transmembrane domain). Decreasing doses of 5, 2.5, 1.25 and 0.612 ng of the indicated TIKI2N expression plasmid were co-transfected with Wnt3a (20 ng) in HEK293T cells. […] T56A, H256A, and R303A had no effect on TIM activity, and so are likely to be less important sites for function.

In the case of [Cl-].[Li+] [LiCl], the “Tiki1 and Dkk1 expression” value [1] is reported as “induced”.

B1: T56A: alanine mutation in Human TIKI2N construct (no transmembrane domain) (protein, UniProt A6NFA1 20-494, looked up, variant T56A)
extracellular domain: RPQPPDGGQCRPPGSQRDLNSFLWTIRRDPPAYLFGAIHVPYTRVWDFIPDNSKAAFQASTRVYFELDLTDPYTISALASCQLLPHGENLQDVLPHELYWRLKRHLDYVKLMMPSWMTPAQRGKGLYADYLFNAIAGNWERKRPVWVMLMVNSLTERDVRFRGVPVLDLYLAQQAEKMKKTTGAVEQVEEQCHPLNNGLNFSQVLFALNQTLLQQESVRAGSLQASYTTEDLIKHYNCGDLSAVIFNHDTSQLPNFINTTLPPHEQVTAQEIDSYFRQELIYKRNERMGKRVMALLRENEDKICFFAFGAGHFLGNNTVIDILRQAGLEVDHTPAGQAIHSPAPQSPAPSPEGTSTSPAPVTPAAAVPEAPSVTPTAPPEDEDPALSPHLLLPDSLSQLEEFGRQRKWHKRQSTHQRPRQFNDLWVRIEDSTTASPPPLPLQPTHSSGTAKPPFQLSDQLQQQDPPGPASSSAPT
modifications: extracellular domain
For B1, the “TIKI activity of TIKI2N mutants (inhibition of Wnt3a-induced TOPFLASH)” value (Wnt3a) was “no effect”.

B2: R303A: alanine mutation in Human TIKI2N construct (no transmembrane domain) (protein, UniProt A6NFA1 20-494, looked up, variant R303A)
extracellular domain: RPQPPDGGQCRPPGSQRDLNSFLWTIRRDPPAYLFGTIHVPYTRVWDFIPDNSKAAFQASTRVYFELDLTDPYTISALASCQLLPHGENLQDVLPHELYWRLKRHLDYVKLMMPSWMTPAQRGKGLYADYLFNAIAGNWERKRPVWVMLMVNSLTERDVRFRGVPVLDLYLAQQAEKMKKTTGAVEQVEEQCHPLNNGLNFSQVLFALNQTLLQQESVRAGSLQASYTTEDLIKHYNCGDLSAVIFNHDTSQLPNFINTTLPPHEQVTAQEIDSYFRQELIYKANERMGKRVMALLRENEDKICFFAFGAGHFLGNNTVIDILRQAGLEVDHTPAGQAIHSPAPQSPAPSPEGTSTSPAPVTPAAAVPEAPSVTPTAPPEDEDPALSPHLLLPDSLSQLEEFGRQRKWHKRQSTHQRPRQFNDLWVRIEDSTTASPPPLPLQPTHSSGTAKPPFQLSDQLQQQDPPGPASSSAPT
modifications: extracellular domain
B2 was tested, and the “TIKI activity of TIKI2N mutants (inhibition of Wnt3a-induced TOPFLASH)” value (Wnt3a) was “no effect”.
